These results are taken from PMC9614494.

The target of this test is recombinant 6xHis-GBP (Arabidopsis thaliana) (UniProt Q9LU39). Put plainly: MST; 6xHis-GBP labelled with RED-NHS 2nd generation as target, with or without GluTR, ligand in 1:1 dilutions from 5 nM to 110 µM; Monolith NT.115, 30°C, 40% LED power, PBS.

For orientation: Kd means the equilibrium constant for the complex coming apart.

recombinant 6xHis-GBP (Arabidopsis thaliana), sequence (Q9LU39 43-317): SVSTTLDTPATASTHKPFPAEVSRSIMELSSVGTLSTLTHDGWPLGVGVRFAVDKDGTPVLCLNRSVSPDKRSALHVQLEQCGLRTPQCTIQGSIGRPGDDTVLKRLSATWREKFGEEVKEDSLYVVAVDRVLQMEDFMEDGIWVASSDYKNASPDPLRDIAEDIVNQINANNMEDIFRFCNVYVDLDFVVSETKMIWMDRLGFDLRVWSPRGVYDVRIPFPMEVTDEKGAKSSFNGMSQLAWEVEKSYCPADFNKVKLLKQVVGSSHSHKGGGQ

For the substance “recombinant 6xHis-GluTR (from UniProt P42804 62-543) (enzyme)”, the Kd was 42 nM.
